B1: HA-tagged HACE1 wild-type [human] / myc-Rac1 Q61L [not stated] (parent complex)
chain 1: MERAMEQLNRLTRSLRRARTVELPEDNETAVYTLMPMVMADQHRSVSELLSNSKFDVNYAFGRVKRSLLHIAANCGSVECLVLLLKKGANPNYQDISGCTPLHLAARNGQKKCMSKLLEYSADVNICNNEGLTAIHWLAVNGRTELLHDLVQHVSDVDVEDAMGQTALHVACQNGHKTTVQCLLDSGADINRPNVSGATPLYFACSHGQRDTAQILLLRGAKYLPDKNGVTPLDLCVQGGYGETCEVLIQYHPRLFQTIIQMTQNEDLRENMLRQVLEHLSQQSESQYLKILTSLAEVATTNGHKLLSLSSNYDAQMKSLLRIVRMFCHVFRIGPSSPSNGIDMGYNGNKTPRSQVFKPLELLWHSLDEWLVLIATELMKNKRDSTEITSILLKQKGQDQDAASIPPFEPPGPGSYENLSTGTRESKPDALAGRQEASADCQDVISMTANRLSAVIQAFYMCCSCQMPPGMTSPRFIEFVCKHDEVLKCFVNRNPKIIFDHFHFLLECPELMSRFMHIIKAQPFKDRCEWFYEHLHSGQPDSDMVHRPVNENDILLVHRDSIFRSSCEVVSKANCAKLKQGIAVRFHGEEGMGQGVVREWFDILSNEIVNPDYALFTQSADGTTFQPNSNSYVNPDHLNYFRFAGQILGLALNHRQLVNIYFTRSFYKHILGIPVNYQDVASIDPEYAKNLQWILDNDISDLGLELTFSVETDVFGAMEEVPLKPGGGSILVTQNNKAEYVQLVTELRMTRAIQPQINAFLQGFHMFIPPSLIQLFDEYELELLLSGMPEIDVSDWIKNTEYTSGYEREDPVIQWFWEVVEDITQEERVLLLQFVTGSSRVPHGGFANIMGGSGLQNFTIAAVPYTPNLLPTSSTCINMLKLPEYPSKEILKDRLLVALHCGSYGYTMA
chain 2: not shown

The values below come from paper PMC5357957 (2017).

This test covers variants of B1. Briefly: co-immunoprecipitation (anti-myc IP), quantified; cells co-transfected with myc-Rac1 Q61L and HA-tagged HACE1 mutants; n ≥ 4 biological replicates; parent: 1; read off a plot.
Consider chain 1 Q173A, for which the ratio to parent was roughly 0.28. Turning to chain 1 V140A, the ratio to parent is roughly 3.2. Consider chain 1 V140L, for which the ratio to parent was roughly 0.55. In the case of chain 1 M114V, the ratio to parent is roughly 2.3. For the variant chain 1 A204T, the ratio to parent was roughly 0.11.

Regarding chain 1 G175C, the ratio to parent was roughly 0.14. Take chain 1 G175S: the ratio to parent was roughly 0.18. Take chain 1 N174A: the ratio to parent was roughly 0.26.
